Test results published in patent US20100256338A1.

Biological target: EGFR on cells (H322M) (human), P00533
Test: cell-based or functional assay

reduction of cell growth, H322M spheroids, 7 days, 100 nM, Celltiter Glow: 77%
B1: humanized <EGFR>ICR62 (antibody, V domains shown)
VH: QVQLVQSGAEVKKPGSSVKVSCKASGFTFTDYKIHWVRQAPGQGLEWMGYFNPNSGYSTYAQKFQGRVTITADKSTSTAYMELSSLRSEDTAVYYCARLSPGGYYVMDAWGQGTTVTVSS
VL: DIQMTQSPSSLSASVGDRVTITCRASQGINNYLNWYQQKPGKAPKRLIYNTNNLQTGVPSRFSGSGSGTEFTLTISSLQPEDFATYYCLQHNSFPTFGQGTKLEIKRT
